# Source: patent US20230265404, “ENGINEERED MAD7 DIRECTED ENDONUCLEASE” (BIO-TECHNE CORPORATION, published 2023)
# T1: MAD7 E962Q (dead MAD7) (Eubacterium rectale, E962Q)
# T1 chain: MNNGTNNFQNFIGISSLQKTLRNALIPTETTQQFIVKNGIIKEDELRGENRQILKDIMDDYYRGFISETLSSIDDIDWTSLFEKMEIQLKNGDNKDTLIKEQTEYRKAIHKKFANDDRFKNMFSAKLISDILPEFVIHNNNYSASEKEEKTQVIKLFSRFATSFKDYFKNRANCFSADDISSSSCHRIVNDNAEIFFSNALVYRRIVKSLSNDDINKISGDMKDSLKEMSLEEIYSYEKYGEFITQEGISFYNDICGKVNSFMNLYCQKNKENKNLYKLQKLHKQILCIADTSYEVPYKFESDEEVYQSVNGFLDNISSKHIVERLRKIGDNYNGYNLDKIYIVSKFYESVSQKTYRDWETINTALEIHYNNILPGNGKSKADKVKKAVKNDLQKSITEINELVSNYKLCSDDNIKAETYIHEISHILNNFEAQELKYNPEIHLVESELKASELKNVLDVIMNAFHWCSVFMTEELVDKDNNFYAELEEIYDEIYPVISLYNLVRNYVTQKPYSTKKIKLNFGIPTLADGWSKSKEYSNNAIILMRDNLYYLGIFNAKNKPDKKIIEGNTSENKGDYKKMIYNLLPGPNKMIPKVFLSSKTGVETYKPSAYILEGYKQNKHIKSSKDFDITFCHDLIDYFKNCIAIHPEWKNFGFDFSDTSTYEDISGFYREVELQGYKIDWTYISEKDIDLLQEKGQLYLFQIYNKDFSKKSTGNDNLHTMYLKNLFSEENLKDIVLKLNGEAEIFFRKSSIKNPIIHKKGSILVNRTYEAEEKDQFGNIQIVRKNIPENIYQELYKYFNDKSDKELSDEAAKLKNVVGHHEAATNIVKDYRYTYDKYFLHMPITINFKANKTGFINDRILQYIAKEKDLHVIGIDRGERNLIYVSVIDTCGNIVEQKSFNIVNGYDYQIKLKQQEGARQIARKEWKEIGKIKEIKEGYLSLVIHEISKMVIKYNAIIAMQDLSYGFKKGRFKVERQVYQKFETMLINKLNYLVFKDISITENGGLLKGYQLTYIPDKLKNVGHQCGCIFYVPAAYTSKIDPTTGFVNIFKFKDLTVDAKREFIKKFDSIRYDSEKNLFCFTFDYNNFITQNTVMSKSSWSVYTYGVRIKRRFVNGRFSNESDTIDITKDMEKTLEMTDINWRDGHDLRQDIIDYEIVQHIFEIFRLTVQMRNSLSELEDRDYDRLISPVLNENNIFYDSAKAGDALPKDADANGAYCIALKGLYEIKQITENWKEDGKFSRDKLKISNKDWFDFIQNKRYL
# B1: MAD7 PPIB gRNA ; 6FAM PPIB target duplex (ssRNA ; dsDNA)
# RNA: UAAUUUCUACUCUUGUAGAUCCGUCACCAAAAUCAGAUUCA
# DNA 1: AGATTCTCATAGGATTTTTACCGTCACCAAAATCAGATTCAGAACCACTTCTCTAAA
# DNA 2: TTTAGAGAAGTGGTTCTGAATCTGATTTTGGTGACGGTAAAAATCCTATGAGAATCT
# Target: T1, MAD7 E962Q (dead MAD7)
# Experiment: EMSA; bound without cutting; PAM TTTA (5', from target sequence); NEB3.1, salmon sperm DNA competitor, 37 C
# Settings: tags: C-terminal 6xHis
# Experimental: To evaluate catalytic activity the modified MAD7 enzyme, an electrophoretic mobility shift assay (EMSA) was performed. The following reagents were used: [0142] […] salmon sperm DNA (United States Biological D3950-02 DNA, Salmon [0143] (Deoxyribonucleic acid) CAS: 9007-49-2 [0144] 100 pmol MAD7 variant [0145] 5 pmol double stranded, 6FAM labeled target (created as described above) [0146] 50 pmol MAD7 PPIB gRNA [0147] 2 μL NEB3.1 10X (New England Biolabs) [0148] 20 μL total reaction
# The MAD7 variant was incubated with MAD7 PPIB gRNA at 37° C. for 15 minutes. Other reagents were added and incubated 37° for 30 minutes. Reactions were analyzed by gel electrophoresis. Samples were run on a 5% Mini-PROTEAN TBE Mini-Gels (Bio-Rad). Gels were pre-run for 15 minutes at 100V in 0.5X TBE running buffer, samples were loaded and run at 200V for 15 minutes. Gels were imaged with ProteinSimple FluorChem M system using blue excitation and green emission filter to detect 6FAM label. Gel was then stained for 15 minutes in ethidium bromide solution and imaged again using blue excitation and orange emission filter to detect DNA, finally the gel was stained with Coomassie stain and imaged with white light. […]
binder,measurement,value
B1,binding result,binds
